Assay results: FireProtDB (doi:10.1021/bi034486i)
Several values for one entry are separate records, joined by “and”; a condition that tells them apart may be missing. Equal values may be shown once.

Conditions: Homo sapiens; pH 7.82; 20 °C; GdnHCl; CD; sodium phosphate 50 mM; whole UniProt chain shown

B1: Thioredoxin-like protein 4A wild type, P83876 (protein)
chain: MSYMLPHLHNGWQVDQAILSEEDRVVVIRFGHDWDPTCMKMDEVLYSIAEKVKNFAVIYLVDITEVPDFNKMYELYDPCTVMFFFRNKHIMIDLGTGNNNKINWAMEDKQEMVDIIETVYRGARKGRGLVVSPKDYSTKYRY
denaturant m value: 2.16 kcal/mol/M and 3.24 kcal/mol/M
denaturant midpoint (higher = more stable): 3.39 M and 3.41 M
unfolding free energy: 7.32 kcal/mol and 11.1 kcal/mol
